# B1: G2D IgG (antibody, V domains shown)
# VH: QVQLVESGGGLVQPGGSLRLSCSASGFDFSSYPMVWVRQAPGKGLEYVSSINSGGSWTGYGAAVKGRATISRDNSKNTLYLQMNSLRAEDTATYYCARAYGAATIDAWGQGTTVTVSS
# VL: SYELTQPPSVSVSPGQTARITCSGGSIGYGWYQQKAPGQAPVTVIYYNDRRPSGIPERFSGSKSGTTNTLTISGVQAEDEADYYCGSADSSSTYTGIFGGGTKLTVL
# notes: The back-substitutions (L46T, S66K, V71N in VL); also called humanized 2D; G2D antibody
# Experiments:
# B7-H1 = B7-H1 (UniProt Q9NZQ7 19-239); assay: indirect ELISA, B7-H1 coated at 1 ug/mL, absorbance at 450 nm
# Description: [The procedure below names another target; the source lists this target under the same test.] The binding ability of 2D IgG prepared in Example 2 for recombinant B7-H3 protein was investigated by indirect ELISA. For indirect ELISA, recombinant human 4lg B7-H3, recombinant human 2lg B7-H3 and recombinant mouse B7-H3 were diluted respectively to 1 μg/mL in 50 μL of PBS and adsorbed overnight onto a 96-well immunoplate (Corning, USA) by storing at 4° C. After reaction with a buffer solution containing 3% bovine serum albumin at room temperature for 1 hour, followed by washing 3 times with a buffer solution containing 0.5% Tween 20, each well was treated with 50 μL of the antibodies diluted serially (0.0001, 0.0003, 0.001, 0.003, 0.01, 0.03, 0.1, 0.3, 1, 3 and 10 nM). For antigen-antibody binding, the mixture was reacted at room temperature for 2 hours, and then washed 3 times with a buffer solution containing 0.5% Tween 20. After treating each well with 50 μL of anti-human immunoglobulin Fc-HRP antibodies (Jackson Immunoresearch, USA) diluted to 1:3,000, reaction was conducted at room temperature for 1 hour. […] As a result of measuring absorbance at 450 nm using a spectrophotometer (Biotek, USA), it was confirmed that 2D IgG binds to B7-H3, and the binding ability was in the order of 4lg B7-H3, 2lg B7-H3 and mouse B7-H3 (FIG. 2a). […]
# [1] = target: B7-H3 on human cancer cells (human) (UniProt Q5ZPR3); assay: flow cytometry on MIA-PaCa2 pancreatic cancer cells; control (secondary antibody only) < 25%
# [2] = target: B7-H3 on human cancer cells (human) (UniProt Q5ZPR3); assay: flow cytometry on HepG2K liver cancer cells; control (secondary antibody only) < 20%
# [3] = target: mouse B7-H3 expressed on Raji cells (mouse) (UniProt Q8VE98); assay: flow cytometry on Raji cells expressing mouse B7-H3; the vector control Raji cells show < 10%
# LTGALEVQVPEDPVV = target: T1, LTGALEVQVPEDPVV; assay: peptide microarray, 15-mers of human 4Ig B7-H3; panel Ig-like-V type 1
# T1 construct: 15-mer of human 4Ig B7-H3 on the peptide microarray, panel Ig-like-V type 1
# T1 peptide: LTGALEVQVPEDPVV
# Description: (§1) It was confirmed that G2D IgG has linear epitopes since G2D was verified to recognize 4lg B7-H3 through western blot (FIG. 10a). Therefore, linear epitope mapping was conducted by Pepperprint GmbH (Germany). After preparing a peptide microarray from the 15 4lg B7-H3 amino acids with 14-amino acid overlaps, the antibodies binding to peptides were identified using secondary antibodies (FIG. 10b). As a result, it was confirmed that G2D IgG binds to a peptide having a sequence of EVQVP (FIG. 10c). EVQVP is located in the Ig-like V-type1 and Ig-like V-type2 domains of 4lg B7-H3 (FIGS. 10d and 10e). When the epitopes of the control antibody enoblituzumab were identified by the same method, it was confirmed that the epitopes include the sequence of GYPEAE (FIG. 10b), and GYPEAE is located in the Ig-like C2-type1 and Ig-like C2-type2 domains of 4lg B7-H3 (FIGS. 10d and 10e). As a result, it was confirmed that G2D IgG and the control antibody enoblituzumab have different epitopes.
# LWFCLTGALEVQVPE = target: T2, LWFCLTGALEVQVPE; assay: as above
# T2 construct: 15-mer of human 4Ig B7-H3 on the peptide microarray, panel Ig-like-V type 1
# T2 peptide: LWFCLTGALEVQVPE
# Description: as §1
# CLTGALEVQVPEDPV = target: T3, CLTGALEVQVPEDPV; assay: as above
# T3 construct: 15-mer of human 4Ig B7-H3 on the peptide microarray, panel Ig-like-V type 1
# T3 peptide: CLTGALEVQVPEDPV
# Description: as §1
# LEVQVPEDPVVALVG = target: T4, LEVQVPEDPVVALVG; assay: as above
# T4 construct: 15-mer of human 4Ig B7-H3 on the peptide microarray, panel Ig-like-V type 1
# T4 peptide: LEVQVPEDPVVALVG
# Description: as §1
# TGALEVQVPEDPVVA = target: T5, TGALEVQVPEDPVVA; assay: as above
# T5 construct: 15-mer of human 4Ig B7-H3 on the peptide microarray, panel Ig-like-V type 1
# T5 peptide: TGALEVQVPEDPVVA
# Description: as §1
# ALWFCLTGALEVQVP = target: T6, ALWFCLTGALEVQVP; assay: as above
# T6 construct: 15-mer of human 4Ig B7-H3 on the peptide microarray, panel Ig-like-V type 1
# T6 peptide: ALWFCLTGALEVQVP
# Description: as §1
# GALEVQVPEDPVVAL = target: T7, GALEVQVPEDPVVAL; assay: as above
# T7 construct: 15-mer of human 4Ig B7-H3 on the peptide microarray, panel Ig-like-V type 1
# T7 peptide: GALEVQVPEDPVVAL
# Description: as §1
# WFCLTGALEVQVPED = target: T8, WFCLTGALEVQVPED; assay: as above
# T8 construct: 15-mer of human 4Ig B7-H3 on the peptide microarray, panel Ig-like-V type 1
# T8 peptide: WFCLTGALEVQVPED
# Description: as §1
# FCLTGALEVQVPEDP = target: T9, FCLTGALEVQVPEDP; assay: as above
# T9 construct: 15-mer of human 4Ig B7-H3 on the peptide microarray, panel Ig-like-V type 1
# T9 peptide: FCLTGALEVQVPEDP
# Description: as §1
# [4] = target: B7-H3 on human cancer cells (human) (UniProt Q5ZPR3); assay: flow cytometry on SK-BR-3 breast cancer cells; control (secondary antibody only) < 5%
# [5] = target: B7-H3 on human cancer cells (human) (UniProt Q5ZPR3); assay: flow cytometry on HT29 colorectal cancer cells; control (secondary antibody only) < 15%
# [6] = target: B7-H3 on human cancer cells (human) (UniProt Q5ZPR3); assay: flow cytometry on NCI-H1975 lung cancer cells; control (secondary antibody only) < 5%
# [7] = target: B7-H3 on human cancer cells (human) (UniProt Q5ZPR3); assay: flow cytometry on A549 lung cancer cells; control (secondary antibody only) < 5%
# Sequence of B7-H1 (Q9NZQ7 19-239 limits assumed): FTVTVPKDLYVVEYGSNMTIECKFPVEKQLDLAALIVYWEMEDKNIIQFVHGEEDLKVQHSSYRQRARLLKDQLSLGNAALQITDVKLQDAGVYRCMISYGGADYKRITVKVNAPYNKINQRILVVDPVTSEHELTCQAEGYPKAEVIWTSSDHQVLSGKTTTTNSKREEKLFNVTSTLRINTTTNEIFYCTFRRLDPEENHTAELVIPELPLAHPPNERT
# Sequence of mouse B7-H3 expressed on Raji cells (mouse) (Q8VE98 other isoform, or with tags, fused parts or gaps, form in doubt): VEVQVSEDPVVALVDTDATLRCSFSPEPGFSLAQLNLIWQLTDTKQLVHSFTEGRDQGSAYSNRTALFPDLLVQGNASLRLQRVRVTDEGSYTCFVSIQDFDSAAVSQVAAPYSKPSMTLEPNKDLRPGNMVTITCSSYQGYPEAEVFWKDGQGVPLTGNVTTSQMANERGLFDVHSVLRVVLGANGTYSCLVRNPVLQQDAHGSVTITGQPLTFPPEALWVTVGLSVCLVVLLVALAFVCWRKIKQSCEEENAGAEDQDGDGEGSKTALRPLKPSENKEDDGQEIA
binder,measurement,setting,value
B1,binding result,B7-H1,no binding (tested: 10 nM)
same,% of cells in the positive gate,[1],> 95%
same,% of cells in the positive gate,[2],> 95%
same,% of cells in the positive gate (P5),[3],> 95%
same,fluorescence intensity of the peptide spot,LTGALEVQVPEDPVV,154
same,fluorescence intensity of the peptide spot,LWFCLTGALEVQVPE,17.3
same,fluorescence intensity of the peptide spot,CLTGALEVQVPEDPV,138
same,fluorescence intensity of the peptide spot,LEVQVPEDPVVALVG,30.5
same,fluorescence intensity of the peptide spot,TGALEVQVPEDPVVA,21
same,fluorescence intensity of the peptide spot,ALWFCLTGALEVQVP,122
same,fluorescence intensity of the peptide spot,GALEVQVPEDPVVAL,20
same,fluorescence intensity of the peptide spot,WFCLTGALEVQVPED,24.8
same,fluorescence intensity of the peptide spot,FCLTGALEVQVPEDP,63
same,% of cells in the positive gate,[4],> 35%
same,% of cells in the positive gate,[5],> 95%
same,% of cells in the positive gate,[6],> 80%
same,% of cells in the positive gate,[7],> 95%
